The values that follow come from FireProtDB (doi:10.1074/jbc.m111.277210).

For orientation: Tm means the temperature at the midpoint of the melting transition.

Several values for one entry are separate records, joined by “and”; a condition that tells them apart may be missing. Identical values can stand only once.

Sequences and labels used below:
B1: D163A|D164A|D165A|G166A|D167A|D168A, Q72SM7 (parent)
chain: MKKLSILAISVALFASITACGAFGGLPSLKSSFVLSEDTIPGTNETVKTLLPYGSVINYYGYVKPGQAPDGLVDGNKKAYYLYVWIPAVIAEMGVRMISPTGEIGEPGDGDLVSDAFKAATPEEKSMPHWFDTWIRVERMSAIMPDQIAKAAKAKPVQKLDDDDDGDDTYKEERHNKYNSLTRIKIPNPPKSFDDLKNIDTKKLLVRGLYRISFTTYKPGEVKGSFVASVGLLFPPGIPGVSPLIHSNPEELQKQAIAAEESLKKAASDATK

The series covers variants of B1. The settings on record: Leptospira interrogans serogroup Icterohaemorrhagiae serovar copenhageni (strain Fiocruz L1-130); pH 8; Thermal; CD; Tris-HCl; KCl; structure 3FRL; whole UniProt chain shown.
Regarding D163A D164A D165A G166A D167A D168A, the Tm is 51 °C and 52 °C.
Turning to S247A, the “change of melting temperature, mutant - wild type (higher = more stable)” value was 0 °C and -1 °C.
On to Q67A, for which the “change of melting temperature, mutant - wild type (higher = more stable)” value is 0 °C.
